Results on four molecules are retold here after patent US5844099, “Cytokine antagonists” (Regeneron Pharmaceuticals, Inc., dated 1998).

The Kd is a measure of binding affinity in units of concentration.

One experiment concerns the target CNTFRα on EW-1 cells. As to the kind of experiment: two site fit of CNTF binding on EW-1 cells; low affinity site.
In experiment [1] the target is CNTFRα, gp130 and LIFRβ on EW-1 cells. As to the kind of experiment: two site fit of CNTF binding on EW-1 cells; high affinity site.
A further experiment concerns the target human 125I-IL-6 (human) (UniProt P05231). As to the kind of experiment: dissociation of 20 pM 125I-IL-6 from 500 pM mAb B-E8 after adding 20 nM cold IL-6; precipitation with Protein G-Sepharose.
The target in experiment [2] is T1, recombinant human IL-6 (human, UniProt P05231).
Experiment [3] deals with T1, recombinant human IL-6. As to the kind of experiment: cell-based or functional assay.
Another experiment concerns the target T2, CNTFRα on PC12D cells.
T2 sequence (Q08406 23-342, looked up): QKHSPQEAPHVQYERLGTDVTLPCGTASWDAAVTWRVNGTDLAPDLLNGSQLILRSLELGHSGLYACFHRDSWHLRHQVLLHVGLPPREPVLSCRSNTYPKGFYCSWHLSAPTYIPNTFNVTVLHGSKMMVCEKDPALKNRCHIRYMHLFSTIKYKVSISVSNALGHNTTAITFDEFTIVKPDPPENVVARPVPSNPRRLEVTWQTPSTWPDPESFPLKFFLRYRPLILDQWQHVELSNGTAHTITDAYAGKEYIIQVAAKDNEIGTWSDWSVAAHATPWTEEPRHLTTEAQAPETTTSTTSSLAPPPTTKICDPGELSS
As to the kind of experiment: Scatchard analysis of 125I-CNTF saturation binding on PC12D cells; low affinity site.

Experiment [4] concerns the target T3, CNTFRα:β1 (CNTFRα and gp130) on PC12D cells.
T3 sequence (Q08406 whole entry, looked up): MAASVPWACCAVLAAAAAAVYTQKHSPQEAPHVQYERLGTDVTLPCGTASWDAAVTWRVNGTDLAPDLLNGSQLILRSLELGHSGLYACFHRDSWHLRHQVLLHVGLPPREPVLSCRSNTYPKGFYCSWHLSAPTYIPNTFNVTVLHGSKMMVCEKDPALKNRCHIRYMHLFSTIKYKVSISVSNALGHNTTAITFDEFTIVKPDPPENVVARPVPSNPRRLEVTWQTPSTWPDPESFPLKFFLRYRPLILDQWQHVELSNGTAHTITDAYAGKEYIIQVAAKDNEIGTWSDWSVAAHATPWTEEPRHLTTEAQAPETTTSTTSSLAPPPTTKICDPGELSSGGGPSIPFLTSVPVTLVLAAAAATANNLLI
T3 sequence (P40190 whole entry, looked up): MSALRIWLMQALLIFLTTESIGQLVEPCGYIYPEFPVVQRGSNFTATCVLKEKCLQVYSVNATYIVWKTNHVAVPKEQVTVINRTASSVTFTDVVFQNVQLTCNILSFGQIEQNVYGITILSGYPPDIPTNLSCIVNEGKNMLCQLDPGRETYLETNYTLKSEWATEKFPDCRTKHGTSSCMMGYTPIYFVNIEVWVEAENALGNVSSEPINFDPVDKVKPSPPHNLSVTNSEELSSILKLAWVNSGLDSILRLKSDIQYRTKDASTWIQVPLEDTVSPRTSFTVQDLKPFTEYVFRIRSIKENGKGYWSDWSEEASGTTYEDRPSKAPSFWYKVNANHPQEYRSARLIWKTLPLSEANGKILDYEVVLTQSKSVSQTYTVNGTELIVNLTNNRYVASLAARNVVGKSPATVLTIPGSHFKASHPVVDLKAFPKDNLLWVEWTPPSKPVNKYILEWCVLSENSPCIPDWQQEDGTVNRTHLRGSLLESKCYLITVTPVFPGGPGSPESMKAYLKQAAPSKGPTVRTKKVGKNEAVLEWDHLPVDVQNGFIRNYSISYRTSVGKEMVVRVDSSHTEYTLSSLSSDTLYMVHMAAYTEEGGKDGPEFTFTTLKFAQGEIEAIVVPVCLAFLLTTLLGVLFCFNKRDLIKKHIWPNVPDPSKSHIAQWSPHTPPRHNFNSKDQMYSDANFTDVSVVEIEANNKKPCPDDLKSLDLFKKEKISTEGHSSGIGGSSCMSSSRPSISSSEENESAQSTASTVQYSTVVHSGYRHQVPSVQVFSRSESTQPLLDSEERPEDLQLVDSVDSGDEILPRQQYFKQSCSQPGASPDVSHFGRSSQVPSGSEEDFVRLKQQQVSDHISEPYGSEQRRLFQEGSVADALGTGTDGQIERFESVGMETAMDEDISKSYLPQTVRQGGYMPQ
Nature of the experiment: Scatchard analysis of 125I-CNTF saturation binding on PC12D cells; high affinity site.

On to CNTF (ligand), for which the dissociation constant Kd in the experiment with CNTFRα on EW-1 cells was found to be 1 nM; in experiment [1] it was 0.01 nM.
Turning to “anti-IL-6 monoclonal neutralizing antibody B-E8”, in the experiment with human 125I-IL-6 (human), the percent of the counts remaining associated after three days is less than 5%. Further, in the experiment with recombinant human IL-6 [2], the IL-6-dependent proliferation of XG-1 cells (MTT assay) (fold molar excess over IL-6) worked out at 10.

B1: gp130-Fc homodimer (Fc fusion)
chain (part 1 of 2): ELLDPCGYISPESPVVQLHSNFTAVCVLKEKCMDYFHVNANYIVWKTNHFTIPKEQYTIINRTASSVTFTDIASLNIQLTCNILTFGQLEQNVYGITIISGLPPEKPKNLSCIVNEGKKMRCEWDGGRETHLETNFTLKSEWATHKFADCKAKRDTPTSCTVDYSTVYFVNIEVWVEAENALGKVTSDHINFDPVYKVKPNPPHNLSVINSEELSSILKLTWTNPSIKSVIILKYNIQYRTKDASTWSQIPPEDTASTRSSFTVQDLKPFTEYVFRIRCMKEDGKGYWSDWSEEASGITYEDRPSKAPSFWYKIDPSHTQGYRTVQLVWKTLPPFEANGKILDYEVTLTRWKSHLQNYTVNATKLTVNLTNDRYLATLTVRNLVGKSDAAVLTIPACDFQATHPVMDLKAFPKDNMLWVEWTTPRESVKKYILEWCVLSDKAPCITDWQQEDGTVHRTYLRGNLAESKCYLITVTPVYADGPGSPESIKAYLKQAPPSKGPTVRTKKVGKNEAVLEWDQLPVDVQNGFIRNYTIFYRTIIGNETAVNVDSSHTEYTLSSLTSDTLYMVRMAAYTDEGGKDGPEFTFTTPKFAQGEIESG
chain (part 2 of 2): HHHHHH
Take B1: the “IL-6-dependent proliferation of XG-1 cells” value in the experiment with recombinant human IL-6 [3] was 1000 fold molar excess over IL-6.

B2: 125I-CNTF (ligand, UniProt P20294 1-200, looked up, species assumed)
Ciliary neurotrophic factor: MAFAEQTPLTLHRRDLCSRSIWLARKIRSDLTALMESYVKHQGLNKNINLDSVDGVPVASTDRWSEMTEAERLQENLQAYRTFQGMLTKLLEDQRVHFTPTEGDFHQAIHTLMLQVSAFAYQLEELMVLLEQKIPENEADGMPATVGDGGLFEKKLWGLKVLQELSQWTVRSIHDLRVISSHQMGISALESHYGAKDKQM
modifications: 125I label
For B2, the results for the Kd (with CNTFRα on PC12D cells; in experiment [4]) were 3.4 nM and 0.009 nM, respectively.
